The values below come from the DeepSol protein solubility set.

A short description of the data set: soluble on expression in E. coli; label from the status in PepcDB or PDB records.
For the sequence “MGSDKIHHHHHHMYPGCRLCINIGDQFARSVYYGRYKVIPIRTEIIKFCETMGFDYMGAIIWQKVTTTNTTGGATIMGSFPYPRNGILKLDYEFILFFKKQGNAPKPTREQKERSVISKEDWNTYFSGHWYFSGVKQEGHIAMFPEELPARLIKMFAFVGDTVLDPFLGSGTTSMAARNLERNSIGYEINQDFIPAIRQKLNVCQMDIHGAEYSFLEDSATIDCEQEIEKLPYVFKDPHKLDKKIDPKKLLFGSKIDRNSADREEYFSVKEVISPEVIRLSNGLLIRLMGVRENTAMNGLAVNFITEKTKGQKIFLKFDLQKHDSQNRLLCYVYLKNKTFLNAHLIKEGLAIVDRSVDFRYKDKFMKLEAQCG”, the “soluble on expression in E. coli” value is on record as “not soluble”. With “MSLKDMIDSIEQFAQTQADFPVYDCLGERRTYGQLKRDSDSIAAFIDSLALLAKSPVLVFGAQTYDMLATFVALTKSGHAYIPVDVHSAPERILAIIEIAKPSLIIAIEEFPLTIEGISLVSLSEIESAKLAEMPYERTHSVKGDDNYYIIFTSGTTGQPKGVQISHDNLLSFTNWMIEDAAFDVPKQPQMLAQPPYSFDLSVMYWAPTLALGGTLFALPKELVADFKQLFTTIAQLPVGIWTSTPSFADMAMLSDDFCQAKMPALTHFYFDGEELTVSTARKLFERFPSAKIINAYGPTEATVALSAIEITREMVDNYTRLPIGYPKPDSPTYIIDEDGKELSSGEQGEIIVTGPAVSKGYLNNPEKTAEAFFTFKGQPAYHTGDIGSLTEDNILLYGGRLDFQIKYAGYRIELEDVSQQLNQSPMVASAVAVPRYNKEHKVQNLLAYIVVKDGVKERFDRELELTKAIKASVKDHMMSYMMPSKFLYRDSLPLTPNGKIDIKTLINEVNNREGHHHHHH”, the “soluble on expression in E. coli” value is given as “soluble”. With “MGSDKIHHHHHHMELKKLDEGLFWPDYKNSIVNFSNSILELFDEKPLHRPFRFPKRVLENVRKVIVMVIDGLSFEIFSDTIHDDDVQVFPCSAVFPTTTAAALPSLYSALTPLEHGFLGYILYLREVGSLVNMIEMSPPGLPRDSVLRFHDFKFTTIFQRLQSKVKSFFLIPRYLLGTGFSRIMSQGSEQIGFSSFGDMIERTLEVLEKHDRTLVFIYWPTLDSIAHKNGVGREYIRELRWIYRILKSELLRRLKQDTLFFLVSDHGQISTPQDNEIWWNFSSEVMRFLDRPPAGEQRMMFLYTKKKRALIEYLKEKYGDFAVFLDTKDVVQLFGTGRKHPEFFSRVGDAVLITRETFSFNYRYTGKEESLSGRHGSLSYQELVVPLVVYRRW”, the “soluble on expression in E. coli” value is given as “not soluble”. Consider “MPLVVFCGLPYSGKSRRAEELRVALAAEGRAVYVVDDAAVLGAEDPAVYGDSAREKALRGALRASVERRLSRHDVVILDSLNYIKGFRYELYCLARAARTPLCLVYCVRPGGPIAGPQVAGANENPGRNVSVSWRPRAEEDGRAQAAGSSVLRELHTADSVVNGSAQADVPKELEREESGAAESPALVTPDSEKSAKHGSGAFYSPELLEALTLRFEAPDSRNRWDRPLFTLVGLEEPLPLAGIRSALFENRAPPPHQSTQSQPLASGSFLHQLDQVTSQVLAGLMEAQKSAVPGDLLTLPGTTEHLRFTRPLTMAELSRLRRQFISYTKMHPNNENLPQLANMFLQYLSQSLH”, for which the “soluble on expression in E. coli” value is “soluble”. Next, “SLSSVNCIEQTTEWTACSKSCGMGFSTRVTNRNRQCEMLKQTRLCMVRPCEQEPEQPTDKKGKKCLRTKKSLKAIHLQFKNCTSLHTYKPRFCGVCSDGRCCTPHNTKTIQAEFQCSPGQIVKKPVMVIGTCTCHTNCPKNNEAFLQELELKTTRGKM”: “soluble”; “QGMIMTSDIKLLDYLRVRRSTPALQLSEPGPSKGEIEEILRLAVRVPDHGKLAPWRFVVYRGEERVRLSEAALRIALEKNPDLDLQQQEAERTRFTRAPVVIAVISTAKPHFKIPEWEQVMSAGAVCLNVIFAANASGFAANWLTEWLAFDPAFLAEIGVSAEEKVAGYIHIGSTTFPPVERPRPELADVVTWVGDV”: “soluble”; “MDLKQYITIVPDFPKPGIMFKDITTLMDNGPAYKYATDQIVQYAREKQIEIVVGPEARGFIIGCPVAYALGVGFAPVRKEGKLPREVVRVEYGLEYGTDVLTMHKDAIKPGQRVLITDDLLATGGTMRATIDLVEQLGGVVAGLAFLIELTELGGRKKLEGYDILTLMQF”: “soluble”.
